Cell penetration, melting temperature and Kd data for three molecules are collected here from patent US11548923B2, “Peptide compositions and methods of use thereof for disrupting TEAD interactions” (Fred Hutchinson Cancer Center, priority 2017, dated 2023).

In series [1] the test system is HeLa cells expressing the HaloEnzyme. The series is classed as cell-based. To be noted: 1 μM HT-labeled peptide, 4 hours. The procedure:
HeLa cells expressing the HaloEnzyme (a modified bacterial haloalkane dehalogenase, further modified to target to the cytosol-facing side of the outer mitochondrial membrane) were grown in 24 well dishes until ˜60% confluent. […] After incubation, cells were rinsed and incubated with Opti-MEM for 30 minutes, and were then incubated with 5 μM HT-TAMRA ligand (Promega G8251) for 30 minutes. An additional control with no HT-TAMRA was tested. After this incubation, cells were rinsed with PBS and then imaged on a fluorescent microscope in FITC/green (all cells) and TRITC/red (HT-TAMRA accumulation) channels.
FIG. 28 illustrates cell-by-cell quantitation of average fluorescence in the red channel of cells in a CAPA.

A short description of series [2]: SYPRO Orange thermal shift (melting) assay. Format: physicochemical. To be noted: heating from 20° C. to 95° C. The procedure: Thermal Shift Assay. Protein melting temperature (Tm) determination can be performed by monitoring protein unfolding using SYPRO Orange dye (Molecular Probes). In brief, 0.1 mg/mL protein sample in 20 μL total volume PBS buffer can be mixed with 2 μL of 10×SYPRO Orange dye. Dye intercalation into the hydrophobic protein core following protein unfolding was assayed using the C1000 Touch Thermal Cycler with CFX96 Deep Well Real-Time System (BioRad). Samples were heated from 20° C. to 95° C. with stepwise increments of 0.5° C. per minute and a 5 see hold step for every point, followed by fluorescence reading. Tm were calculated by analyzing the derivatives of Relative florescence Units (RFU).
Protein secondary structures were assessed using Circular Dichroism (CD). CD spectra were measured with a Jasco J-720W spectropolarimeter using a 1.0 mm path length cell. Protein samples in 10 mM phosphate buffer (pH=7.4) were at 25-30 μM protein concentration. Samples were analyzed at wavelength ranges of 260-190 nM. Data were expressed in terms of relative ellipticity; (mdeg). […] Samples were heated from 20° C. to 95° C. with stepwise increments of 0.5° C. per minute and a 5 sec hold step for every point, followed by fluorescence reading. Tm was calculated by analyzing the derivatives of Relative florescence Units (RFU). […]

The target of a further series is T1, biotinylated TEAD (Homo sapiens, UniProt P28347).
T1 construct: GST; made in house; host or cells: Hi5 insect cells (baculovirus, BacMagic, pIEX-BAC3)
The series is described as follows: Surface plasmon resonance (SPR) binding of soluble peptides to captured biotinylated TEAD. Particulars: biotinylated TEAD immobilized on an SPR chip, read-out: dissociation constant (KD).

T1 sequence (P28347 209-426): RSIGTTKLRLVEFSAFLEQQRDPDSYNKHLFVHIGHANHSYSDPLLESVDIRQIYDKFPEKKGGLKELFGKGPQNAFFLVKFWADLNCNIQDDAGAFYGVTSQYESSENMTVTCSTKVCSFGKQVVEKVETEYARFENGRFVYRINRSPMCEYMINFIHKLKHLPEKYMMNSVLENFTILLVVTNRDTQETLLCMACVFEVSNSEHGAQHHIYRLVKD

B1: GSGDCLPHLKRCKADNDCCGKKCKRRGTNAEKRCREPKSSDKTHTPDEYIERAKECCKKQDIQCCLRIFDESKDPNVMLICLFCW (peptide)
chain: GSGDCLPHLKRCKADNDCCGKKCKRRGTNAEKRCREPKSSDKTHTPDEYIERAKECCKKQDIQCCLRIFDESKDPNVMLICLFCW
With B1, the cell penetration result in series [1] was “high cell penetration”.

B2: Human siderocalin: Human siderocalin (HuScn), control protein in SYPRO Orange melting assay (protein, UniProt P80188 21-198, looked up)
Neutrophil …: QDSTSDLIPAPPLSKVPLQQNFQDNQFQGKWYVVGLAGNAILREDKDPQKMYATIYELKEDKSYNVTSVLFRKKKCDYWIRTFVPGCQPGEFTLGNIKSYPGLTSYLVRVVSTNYNQHAMVFFKKVSQNREYFKITLYGRTKELTSELKENFIRFSKSLGLPENHIVFPVPIDQCIDG
Consider B2, for which the melting temperature in series [2] worked out at 79 °C.

B3: Siderocalin-fused YAP: YAP (50-171) produced as a soluble siderocalin fusion (protein)
chain: QDSTSDLIPAPPLSKVPLQQNFQDNQFQGKWYVVGLAGNAILREDKDPQKMYATIYELKEDKSYNVTSVLFRKKKCDYWIRTFVPGCQPGEFTLGNIKSYPGLTSYLVRVVSTNYNQHAMVFFKKVSQNREYFKITLYGRTKELTSELKENFIRFSKSLGLPENHIVFPVPIDQCIDGAGHQIVHVRGDSETDLEALFNAVMNPKTANVPQTVPMRLRKLPDSFFKPPEPKSHSRQASTDAGTAGALTPQHVRAHSSPASLQLGAVSPGTLTPTGVVSGPAATPTAQHLRQSSFEIPDDV
modifications: left off: small tags and cut ends
Turning to B3, the Kd with biotinylated TEAD turned out to be 570 nM.
